For the assay, the target named is PTH receptor (PTHR1) (human) (UniProt Q03431). As to the kind of experiment: cell-based or functional assay.
Sequence of PTH receptor (PTHR1) (human) (Q03431 27-593): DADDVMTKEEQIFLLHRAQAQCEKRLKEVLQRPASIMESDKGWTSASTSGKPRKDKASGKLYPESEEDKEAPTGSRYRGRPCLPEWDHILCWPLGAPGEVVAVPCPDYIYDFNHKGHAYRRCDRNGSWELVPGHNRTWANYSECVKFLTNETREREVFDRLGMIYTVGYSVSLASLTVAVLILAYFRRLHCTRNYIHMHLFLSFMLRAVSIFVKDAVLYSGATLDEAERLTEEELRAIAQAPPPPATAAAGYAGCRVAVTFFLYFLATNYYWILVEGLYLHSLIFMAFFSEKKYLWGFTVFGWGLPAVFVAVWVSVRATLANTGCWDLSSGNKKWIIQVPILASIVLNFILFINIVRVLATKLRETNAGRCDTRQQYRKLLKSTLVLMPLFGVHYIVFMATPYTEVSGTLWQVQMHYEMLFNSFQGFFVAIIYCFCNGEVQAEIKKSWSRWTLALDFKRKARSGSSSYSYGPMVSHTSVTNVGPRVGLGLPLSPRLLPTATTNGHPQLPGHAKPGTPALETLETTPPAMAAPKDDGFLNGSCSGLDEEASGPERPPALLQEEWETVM

PTH (internal standard) (ligand) gave a maximal response of 105%.

For the origin of these results see US10005817.
